The values that follow are results of earlier work, collected in article PMC3557855.

What all share (assay): SPR
Background: In SPR one partner is held on a chip, and binding of the other changes the refractive index at the surface.

For data set [1], the target named is ESL-1 (UniProt Q61543).
Data set [2] has as its target PSGL-1 (Homo sapiens) (UniProt Q14242).
Data set [3] concerns the target GlyCAM-1 (Mus musculus) (UniProt Q02596).
UniProt Q02596, sequence (Q02596 20-151): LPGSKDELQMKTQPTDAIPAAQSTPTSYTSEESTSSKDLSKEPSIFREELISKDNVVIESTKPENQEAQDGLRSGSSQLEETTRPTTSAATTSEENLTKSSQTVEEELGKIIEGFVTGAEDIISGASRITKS

UniProt Q61543, sequence (Q61543 28-1141): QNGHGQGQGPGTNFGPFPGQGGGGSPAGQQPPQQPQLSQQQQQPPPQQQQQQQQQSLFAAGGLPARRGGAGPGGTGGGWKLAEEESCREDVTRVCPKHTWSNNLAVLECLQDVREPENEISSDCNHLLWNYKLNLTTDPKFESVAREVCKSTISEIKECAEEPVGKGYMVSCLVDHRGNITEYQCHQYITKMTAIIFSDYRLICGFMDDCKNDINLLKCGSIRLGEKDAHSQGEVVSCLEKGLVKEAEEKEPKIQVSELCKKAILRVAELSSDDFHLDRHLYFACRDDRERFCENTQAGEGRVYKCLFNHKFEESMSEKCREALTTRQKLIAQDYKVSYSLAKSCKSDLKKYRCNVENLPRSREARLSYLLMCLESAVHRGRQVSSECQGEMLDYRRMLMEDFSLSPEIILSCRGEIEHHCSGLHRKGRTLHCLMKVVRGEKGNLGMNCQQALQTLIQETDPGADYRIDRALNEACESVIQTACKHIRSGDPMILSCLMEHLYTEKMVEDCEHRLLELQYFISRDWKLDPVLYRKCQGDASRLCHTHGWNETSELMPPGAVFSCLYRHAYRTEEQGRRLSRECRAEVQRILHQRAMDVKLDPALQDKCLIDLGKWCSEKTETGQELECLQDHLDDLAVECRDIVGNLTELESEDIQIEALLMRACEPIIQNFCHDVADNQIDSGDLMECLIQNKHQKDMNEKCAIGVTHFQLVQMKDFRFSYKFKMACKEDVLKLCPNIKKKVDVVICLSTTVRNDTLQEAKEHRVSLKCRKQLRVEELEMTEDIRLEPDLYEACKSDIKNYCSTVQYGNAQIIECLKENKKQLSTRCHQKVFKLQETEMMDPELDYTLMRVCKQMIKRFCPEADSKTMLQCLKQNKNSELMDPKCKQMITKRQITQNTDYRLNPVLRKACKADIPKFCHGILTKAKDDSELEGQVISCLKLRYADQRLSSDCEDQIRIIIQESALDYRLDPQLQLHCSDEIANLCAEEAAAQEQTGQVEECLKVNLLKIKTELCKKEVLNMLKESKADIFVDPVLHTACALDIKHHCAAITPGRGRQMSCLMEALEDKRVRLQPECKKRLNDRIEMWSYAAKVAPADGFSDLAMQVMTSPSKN
UniProt Q14242, sequence (Q14242 42-320): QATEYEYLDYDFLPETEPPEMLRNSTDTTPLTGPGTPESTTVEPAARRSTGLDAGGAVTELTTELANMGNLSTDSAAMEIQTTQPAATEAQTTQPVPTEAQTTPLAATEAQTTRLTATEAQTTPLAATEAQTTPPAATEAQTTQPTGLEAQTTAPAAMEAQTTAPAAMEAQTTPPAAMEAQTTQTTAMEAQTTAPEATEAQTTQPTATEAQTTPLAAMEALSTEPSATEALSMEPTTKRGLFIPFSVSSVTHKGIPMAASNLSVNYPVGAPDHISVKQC

For E-selectin (from UniProt P16581), the Kd (commonly the constant that tells how readily two partners part at equilibrium) in data set [1] is 62 µM.
With L-selectin (from UniProt P14151), the Kd in data set [2] was 47 µM.
Turning to L-selectin (from UniProt P18337), the Kd in data set [3] is 108 µM.
